Results on three molecules are retold here after article PMC2701438.

The experiment deals with Full length LEF-1 (1-399) (human) (UniProt Q9UJU2).
UniProt Q9UJU2, sequence (Q9UJU2 whole entry): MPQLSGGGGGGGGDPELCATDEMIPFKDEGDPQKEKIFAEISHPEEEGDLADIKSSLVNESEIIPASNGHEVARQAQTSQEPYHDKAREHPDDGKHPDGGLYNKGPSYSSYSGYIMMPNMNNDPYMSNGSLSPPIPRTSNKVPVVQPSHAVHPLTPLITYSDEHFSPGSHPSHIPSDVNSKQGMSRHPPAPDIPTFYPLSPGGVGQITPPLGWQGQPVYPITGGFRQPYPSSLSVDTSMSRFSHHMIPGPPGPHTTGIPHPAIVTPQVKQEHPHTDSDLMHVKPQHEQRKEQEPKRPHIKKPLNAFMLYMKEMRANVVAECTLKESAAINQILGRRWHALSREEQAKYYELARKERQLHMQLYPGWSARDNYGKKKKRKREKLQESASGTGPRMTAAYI

Regarding “GST-Groucho (Drosophila), recovered as a 97 kDa protease-stable fusion protein (from UniProt P16371 1-730) (natural protein)”, the repression of LEF-1•β-catenin activated TOPFlash luciferase reporter in COS-1 cells, 250 and 500 ng Groucho expression vector is 3 fold.

In turn, “human TLE-2 (from UniProt Q04725 1-743) (natural protein)” displayed a repression of LEF-1•β-catenin activated TOPFlash luciferase reporter in COS-1 cells of 3 fold.

B1: human Amino-enhancer-of-split (AES) (natural protein)
chain: MMFPQSRHSGSSHLPQQLKFTTSDSCDRIKDEFQLLQAQYHSLKLECDKLASEKSEMQRHYVMYYEMSYGLNIEMHKQAEIVKRLNGICAQVLPYLSQEHQQQVLGAIERAKQVTAPELNSIIRQQLQAHQLSQLQALALPLTPLPVGLQPPSLPAVSAGTGLLSLSALGSQAHLSKEDKNGHDGDTHQEDDGEKSD
In the case of B1, the repression of LEF-1•β-catenin activated TOPFlash luciferase reporter in COS-1 cells, 250 and 500 ng AES expression vector amounted to 3 fold.
